Experiment [1] deals with T1, human PD-L1/His fusion protein (human, UniProt Q9NZQ7 19-239). Put plainly: BLI Octet RED96, antibody on AHC sensor, single conc. PD-L1/His; test group 4; test group 4. The protocol: (§1) Briefly, antibodies were characterized for affinities and binding kinetics by Octet®RED96 biolayer interferometry (Pall ForteBio LLC). Antibodies were captured by Anti-hIgG Fc Capture (AHC) Biosensors (Pall) at a concentration of 100 nM for 30 seconds. Sensors were then dipped into running buffer (1×pH 7.2 PBS, 0.05% Tween 20, 0.1% BSA) for 60 seconds to check baseline. Binding was measured by dipping sensors into a single concentration of recombinant human PD-L1/His fusion protein (Novoprotein). Dissociation was followed by dipping sensors into running buffer for 1200 seconds. The association and dissociation curves were fitted to a 1:1 Langmuir binding model using ForteBio Data Analysis software (Pall). […] The off-rate ratio serves as a data normalization. Accordingly, in each test group, the off-rate ratios of the humanized antibodies can be compared with that of the chimeric antibody, and the off-rate ratios of each of the humanized antibodies can be compared to one another within all test groups.

In experiment [2] the target is T1, human PD-L1/His fusion protein. Put plainly: BLI off-rate; test group 4. The protocol: as §1
Experiment [3] deals with T2, biotinylated human PD-L1 protein (ACROBiosystems, H82E5) (human, UniProt Q9NZQ7 19-238, biotinylated (site not stated)).
T2 construct: also called biotinylated PD-L1
The experiment is described as follows: dual-binding ELISA: human TGFβ3 coated, 5 nM binding protein bound to it, biotinylated human PD-L1 titrated 0.0006-10 nM (axis labelled Ab (nM)), streptavidin-HRP, OD450; the EC50 is of the titrated PD-L1. The protocol: (§2) Briefly, ELISA plates were incubated overnight at 4° C. with 100 μl of a human TGFβ isoform diluted in PBS buffer, pH 7.4, at 1 μg/ml, to allow the human TGFβ isoform to coat (adsorb to) the surface of the wells. Plates were washed three times in washing buffer (PBS containing 0.05% Tween 20) and blocked for 1 hour at 37° C. with 200 μl per well blocking buffer (1% BSA in PBS containing 0.05% Tween 20). […] The wells were washed four times with washing buffer, and Streptavidin-HRP (Merck, RABHRP3) was diluted 1:10000 and added to the wells at 100 μl per well. The plates were incubated for 1 hour at 37° C. and washed four times in washing buffer. 100 μl of tetramethylbenzidine (TMB) chromogenic solution were added per well.

The target in experiment [4] is T2, biotinylated human PD-L1 protein …. The experiment is described as follows: dual-binding ELISA: human TGFβ1 coated, 5 nM binding protein bound to it, biotinylated human PD-L1 titrated 0.0006-10 nM (axis labelled Ab (nM)), streptavidin-HRP, OD450; the EC50 is of the titrated PD-L1. Here is the method:
as §2
(In general: ELISA stands for enzyme-linked immunosorbent assay.)

Another experiment deals with T3, human TGFβ1 (human, UniProt P01137 279-390).
T3 construct: also called TGFβ isoform 1; TGFβ1 (Cat. No. CA59, Novoprotein)
Put plainly: ELISA: human TGFβ1 coated (1 µg/ml), binding protein titrated 0.0006-10 nM, anti-human IgG Fc-HRP, OD450. The protocol: (§3) Accordingly, each of the wells of the ELISA microplates provided a reaction mixture to test the ability of a particular binding protein at a particular concentration to bind to a particular TGFβ isoform. […] Plates were washed three times in washing buffer (PBS containing 0.05% Tween 20) and blocked for 1 hour at 37° C. with 200 μl per well of blocking buffer (1% BSA in PBS containing 0.05% Tween 20). […] The wells containing the various binding mixtures were incubated at 37° C. for 1 hour to permit binding to TGFβ protein on the surface of the wells. Thereafter, the wells were washed four times with washing buffer, and anti-human IgG Fc HRP (Sigma, Catalog No. A0170) was diluted 1:10000 and added to the wells at 100 μl per well to detect binding protein that was bound to TGFβ protein present on the surface of a well. The plates were incubated for 1 hour at 37° C. and washed four times with washing buffer. 100 μl of tetramethylbenzidine (TMB) chromogenic solution were added per well. Following color development, the reaction was stopped with 1 N HCl, and absorbance at 450 nm (OD450) was measured on a VARIOSKAN™ LUX microplate reader (Thermo Scientific™).

In experiment [5] the target is T1, human PD-L1/His fusion protein. The experiment is described as follows: BLI Octet Red, binding protein on AHC sensor, PD-L1-his in solution. Here is the method: Sensors were then dipped into running buffer (1×pH 7.2 PBS, 0.05% Tween 20, 0.1% BSA) for 60 seconds to check baseline. Binding was measured by dipping sensors into a series diluted concentration of recombinant human PD-L1-his protein. Dissociation was followed by dipping sensors into running buffer for 1200 seconds. The association and dissociation curves were fitted to a 1:1 Langmuir binding model using ForteBio Data Analysis software (Pall). The equilibrium dissociation constant KD (M) of the reaction between antibodies and related target proteins was then calculated from the kinetic rate constants using the formula KD=koff/kₒₙ.
In general terms: Biolayer interferometry detects binding as a change in optical thickness at a sensor tip.

The target of experiment [6] is T2, biotinylated human PD-L1 protein …. The experiment is described as follows: dual-binding ELISA: human TGFβ2 coated, 5 nM binding protein bound to it, biotinylated human PD-L1 titrated 0.0006-10 nM (axis labelled Ab (nM)), streptavidin-HRP, OD450; the EC50 is of the titrated PD-L1. Here is the method:
as §2

The next experiment addresses T4, human TGFβ2 (human, UniProt P61812 303-414).
T4 construct: also called TGFβ isoform 2; TGFβ2 (Cat. No. CJ79, Novoprotein)
T4 sequence (looked up): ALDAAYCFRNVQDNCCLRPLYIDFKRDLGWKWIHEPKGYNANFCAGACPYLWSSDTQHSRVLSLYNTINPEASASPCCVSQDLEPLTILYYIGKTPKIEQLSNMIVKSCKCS
The experiment is described as follows: ELISA: human TGFβ2 coated (1 µg/ml), binding protein titrated 0.0006-10 nM, anti-human IgG Fc-HRP, OD450. The protocol: as §3

Two molecules from US20230242675A1 (SHANGHAI EPIMAB BIOTHERAPEUTICS, published 2023) can be followed below.

As usually defined, the koff is a measure of how fast the partners let go of each other. A higher koff goes with fast dissociation. The EC50 is the midpoint of the concentration-response curve. Low readings indicate higher potency in that assay, high ones lower potency in that assay. The term Kd denotes the constant that tells how readily two partners part at equilibrium.

T1 sequence (Q9NZQ7 19-239 limits assumed): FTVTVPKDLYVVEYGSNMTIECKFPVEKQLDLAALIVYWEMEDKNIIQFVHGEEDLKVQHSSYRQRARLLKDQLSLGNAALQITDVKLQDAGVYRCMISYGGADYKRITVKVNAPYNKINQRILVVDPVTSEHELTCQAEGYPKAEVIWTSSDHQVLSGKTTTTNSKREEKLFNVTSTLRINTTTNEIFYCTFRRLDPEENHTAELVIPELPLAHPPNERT
T2 sequence (Q9NZQ7 19-238 limits assumed): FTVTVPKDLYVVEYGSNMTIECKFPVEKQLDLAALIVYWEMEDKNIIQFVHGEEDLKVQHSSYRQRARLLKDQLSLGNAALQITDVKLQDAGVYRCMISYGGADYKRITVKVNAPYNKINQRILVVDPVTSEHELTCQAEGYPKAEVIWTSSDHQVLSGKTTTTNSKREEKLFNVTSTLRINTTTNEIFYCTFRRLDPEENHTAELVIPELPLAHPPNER
T3 sequence (P01137 279-390 limits assumed): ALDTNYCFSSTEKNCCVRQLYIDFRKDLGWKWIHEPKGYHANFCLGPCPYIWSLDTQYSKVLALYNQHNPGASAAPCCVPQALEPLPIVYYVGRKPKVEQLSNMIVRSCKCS

B1: HuEM0005-90-19 (antibody, human IgG1, V domains shown)
VH: EVQLVQSGAEVKKPGASVKVSCKTSGYTFTSHSINWVRQATGQGLEWMGYMYIGNGYTEYNEKFKGRVTMTSNTSISTAYMELSSLRSEDTAVYYCAKITPVVAPYVMDYWGQGTSVTVSS
VL: DIVMTQSPSFLSASVGDRVTITCKASQDVGTAVAWYQQKPGKAPKLLIYWASTRHTGVPDRFTGSGSGTDFTLTISSLQPEDFATYYCQQYSSYPYTFGQGTKLEIK
B1 gave a koff in experiment [1] of 0.00328 s⁻¹. Moreover, in experiment [2], the “Off-Rate Ratio to that of EM0005-90c” value came to 146%.

B2: FIT1012-7a TGFβ/PD-L1 bispecific binding protein (bispecific antibody, human IgG1, kappa)
heavy: not shown
chain: TIPPHVQKSVNNDMIVTDNNGAVKFPQLCKFCDVRFSTCDNQKSCMSNCSITSICEKPQEVCVAVWRKNDENITLETVCHDPKLPYHDFILEDAASPKCIMKEKKKPGETFFMCSCSSDECNDNIIFSEEYNTSNPDASTKGPSVFPLAPSSKSTSGGTAALGCLVKDYFPEPVTVSWNSGALTSGVHTFPAVLQSSGLYSLSSVVTVPSSSLGTQTYICNVNHKPSNTKVDKKVEPKSC
light: DIQLTQSPSFLSASVGDRVTITCKASQDVGTAVAWYQQKPGKAPKLLIYWASTRHTGVPSRFSGSGSGTEFTLTISSLQPEDFATYYCQQYSSYPYTFGQGTKLEIKRTVAAPSVFIFPPSDEQLKSGTASVVCLLNNFYPREAKVQWKVDNALQSGNSQESVTEQDSKDSTYSLSSTLTLSKADYEKHKVYACEVTHQGLSSPVTKSFNRGEC
notes: Six-chain protein; anti-PD-L1 moiety from HuEM0005-90-1 with G55A; four TGFβR2(ECD) traps
With B2, the EC50 in experiment [3] is 0.262 nM; in experiment [4], 0.275 nM; with human TGFβ1 it was 0.374 nM; in experiment [6], 0.262 nM; with human TGFβ2, 0.833 nM. In experiment [5], this molecule registered a Kd of under 0.01 nM.
